From patent US9260728B2, “Terpene synthases from Santalum” (UNIVERSITY OF BRITISH COLUMBIA, priority 2009, dated 2016)

How the values were obtained:
Type in all cases: biochemical
[1] = GC-FID determination of reaction products of terpene synthases from FPP with magnesium or manganese
[2] = as above; remark: listed apart in the source
Method: Enzyme assays for all recombinant proteins were done in triplicate using the GC vial method described by O'Maille et al. (Anal. Biochem. 335:[…] (2004). For enzyme assays where only product identification was needed, 10 μg of protein was used in a final volume of 500 μL of reaction buffer (25 mM HEPES, 10% glycerol, 5 mM DTT and 10 mM of either Mg^2+ or Mn^2+. Substrates (FPP and GPP) were added to a final reaction concentration of 100 μM. Vials were overlaid with 500 μL of hexane to trap volatile products and incubated at 30° C. for 2 h. Mixtures were vortexed for 1 min to extract all volatiles and the vials were centrifuged to separate the organic layer.
Product mixtures were analysed by GC-MS in scan mode for product identification. A standard containing the three santalenes and α-trans-bergamotene was prepared by flash chromatography of 2 mL of neat S. album oil over silica and eluted in hexane. A final yield of 25 mg was resuspended in EtOAc and purity was confirmed by GC-FID with conditions described below. All mass spectra were compared to the NIST 2005 library and the literature. Retention indices were determined for all compounds using an n-alkane standard and compared to the literature (R. P. Adams, “Identification of essential oil components by gas chromatography/mass spectrometry,” Allured Publishing Corporation, Carol Stream, Ill. (1995)).
(§1) GC-FID was performed on a Shimadzu GC2010 with a 30 m 0.25 mm ID, 0.25 μm film DB-WAX column with He as the carrier gas. Splitless injection (2 μL) was used for all analyses. Conditions were as follows: injector 200° C., detector 250° C., column flow rate 1 mL/min. Oven program: 40° C. for 3 min, then 8° C./min to 180° C., held 5 min, then 10° C./min to 220° C., held 10 min. Needle height was adjusted to only draw from the upper organic layer of all sample vials. GC-MS was performed on a Shimadzu GC2010 with the same DB-WAX column and using He as the carrier gas. Conditions were as follows: injector 200° C., MS interface 240° C., ion source 200° C. Oven program: 40° C. for 3 min, then 8° C./min to 180° C., held 5 min, then 10° C./min to 220° C., held 10 min. Solvent cut time was set to 5 min. For product identification, total ion monitoring was used, scanning from m/z 45 to m/z 300. For kinetic assays, single ion monitoring of the sesquiterpene base ions m/z 91, 93 and 94 were used. Likewise monoterpene base ions (m/z 69, 71 and 93) were monitored. An internal standard (isobutyl benzene, 30 μM) was added to the hexane used to overlay each reaction. Detector response factors were calculated based on the santalene standard prepared earlier and used to determine the product concentrations for kinetic analysis.

[3] = Steady-state enzyme kinetic assays
Method: For determination of steady-state enzyme kinetic constants, conditions were as described previously except the enzyme concentration was kept at 10 nM. Substrate concentrations ranged from 1 uM to 100 uM, and reactions were incubated at 30° C. for exactly 5 mins. Reactions were quenched by the addition of 500 μL 0.5 M EDTA, pH 8.0 and vortexed as above.
as §1

B1: SauSSy: santalene synthase from Santalum austrocaledonicum, gene SEQ ID NO:3, protein SEQ ID NO:4 (protein, listed as Santalum austrocaledonicum)
chain: MDSSTATAMTAPFIDPTDHVNLKTDTDASENRRMGNYKPSIWNYDFLQSLATHHNIVEERHLKLAEKLKGQVKFMFGAPMEPLAKLELVDVVQRLGLNHRFETEIKEALFSIYKDESNGWWFGHLHATSLRFRLLRQCGLFIPQDVFKTFQNKTGEFDMKLCDNVKGLLSLYEASYLGWKGENILDEAKAFATKYLKSAWENISEKWLAKRVKHALALPLHWRVPRIEARWFIEAYEQEANMNPTLLKLAKLDFNMVQSIHQKEIGELARWWVTTGLDKLAFARNNLLQSYMWSCAIASDPKFKLARETIVEIGSVLTVVDDAYDVYGSMDELDLYTSSVERWSCVEIDKLPNTLKLIFMSMFNKTNEVGLRVQHERGYNSIPTFIKAWVQQCKSYQKEARWFHGGHTPPLEEYSLNGLVSIGFPLLLITGYVAIAENEAALDKVHPLPDLLHYSSLLSRLINDIGTSPDEMARGDNLKSIHCYMNGTGASEEVAREHIKGVIEENWKILNQCCFDQSQFQEPFITFNLNSVRGSHFFYEFGDGFGVTDSWTKVDMKSVLIDPIPLGEE
modifications: SauSSy Protein
Q: Which “Relative % composition in oil produced by enzyme: epi-β-santalol” value [1] does the source give for B1 here?
A: Its value is 4.8%.

Q: What about the “Relative % composition in oil produced by enzyme: α-santalol” value [1] of the same molecule?
A: Its value is 51.3%.

Q: What about the “E-β-farnesene among reaction products (GC-FID)” value ([2]; FPP Mg, mean) of the same molecule?
A: The value was 1.4.

Q: What about the “Z-β-farnesene among reaction products (GC-FID)” value ([2]; FPP Mg, mean) of the same molecule?
A: The value was 0.6.

Q: And the “epi-β-santalene among reaction products (GC-FID)” value ([2]; FPP Mg, mean)?
A: Its value is 4.8.

Q: What about the “α-E-bergamotene among reaction products (GC-FID)” value ([2]; FPP Mg, mean) of the same molecule?
A: Its value is 14.5.

Q: And the “α-santalene among reaction products (GC-FID)” value ([2]; FPP Mg, mean)?
A: The value was 51.3.

Q: What about the “β-santalene among reaction products (GC-FID)” value ([2]; FPP Mg, mean) of the same molecule?
A: Its value is 27.4.

Q: What about the “E-β-farnesene among reaction products (GC-FID)” value ([2]; FPP Mg, replicate 1) of the same molecule?
A: Its value is 1.5.

Q: What about the “Z-β-farnesene among reaction products (GC-FID)” value ([2]; FPP Mg, replicate 1) of the same molecule?
A: The value was 0.6.

Q: What about the “epi-β-santalene among reaction products (GC-FID)” value ([2]; FPP Mg, replicate 1) of the same molecule?
A: Its value is 4.7.

Q: What about the “α-E-bergamotene among reaction products (GC-FID)” value ([2]; FPP Mg, replicate 1) of the same molecule?
A: Its value is 13.8.

Q: And the “α-santalene among reaction products (GC-FID)” value ([2]; FPP Mg, replicate 1)?
A: The value was 51.7.

Q: What about the “β-santalene among reaction products (GC-FID)” value ([2]; FPP Mg, replicate 1) of the same molecule?
A: Its value is 27.8.

Q: And the “E-β-farnesene among reaction products (GC-FID)” value ([2]; FPP Mg, replicate 2)?
A: Its value is 1.3.

Q: What about the “Z-β-farnesene among reaction products (GC-FID)” value ([2]; FPP Mg, replicate 2) of the same molecule?
A: Its value is 0.6.

Q: What about the “epi-β-santalene among reaction products (GC-FID)” value ([2]; FPP Mg, replicate 2) of the same molecule?
A: Its value is 4.6.

Q: And the “α-E-bergamotene among reaction products (GC-FID)” value ([2]; FPP Mg, replicate 2)?
A: The value was 14.6.

Q: What about the “α-santalene among reaction products (GC-FID)” value ([2]; FPP Mg, replicate 2) of the same molecule?
A: Its value is 51.5.

Q: And the “β-santalene among reaction products (GC-FID)” value ([2]; FPP Mg, replicate 2)?
A: Its value is 27.5.

Q: And the “E-β-farnesene among reaction products (GC-FID)” value ([2]; FPP Mg, replicate 3)?
A: Its value is 1.5.

Q: What about the “Z-β-farnesene among reaction products (GC-FID)” value ([2]; FPP Mg, replicate 3) of the same molecule?
A: The value was 0.5.

Q: What about the “epi-β-santalene among reaction products (GC-FID)” value ([2]; FPP Mg, replicate 3) of the same molecule?
A: Its value is 5.1.

Q: What about the “α-E-bergamotene among reaction products (GC-FID)” value ([2]; FPP Mg, replicate 3) of the same molecule?
A: The value was 15.2.

Q: What about the “α-santalene among reaction products (GC-FID)” value ([2]; FPP Mg, replicate 3) of the same molecule?
A: The value was 50.7.

Q: What about the “β-santalene among reaction products (GC-FID)” value ([2]; FPP Mg, replicate 3) of the same molecule?
A: Its value is 27.0.

Q: And the “E-β-farnesene among reaction products (GC-FID)” value ([2]; FPP Mn, mean)?
A: Its value is 8.5.

Q: And the “Z-β-farnesene among reaction products (GC-FID)” value ([2]; FPP Mn, mean)?
A: Its value is 0.9.

Q: And the “epi-β-santalene among reaction products (GC-FID)” value ([2]; FPP Mn, mean)?
A: Its value is 1.2.

Q: And the “α-E-bergamotene among reaction products (GC-FID)” value ([2]; FPP Mn, mean)?
A: Its value is 73.6.

Q: And the “α-santalene among reaction products (GC-FID)” value ([2]; FPP Mn, mean)?
A: Its value is 10.2.

Q: What about the “β-santalene among reaction products (GC-FID)” value ([2]; FPP Mn, mean) of the same molecule?
A: The value was 5.3.

Q: And the “E-β-farnesene among reaction products (GC-FID)” value ([2]; FPP Mn, replicate 1)?
A: The value was 8.3.

Q: And the “Z-β-farnesene among reaction products (GC-FID)” value ([2]; FPP Mn, replicate 1)?
A: The value was 0.9.

Q: What about the “epi-β-santalene among reaction products (GC-FID)” value ([2]; FPP Mn, replicate 1) of the same molecule?
A: Its value is 1.4.

Q: What about the “α-E-bergamotene among reaction products (GC-FID)” value ([2]; FPP Mn, replicate 1) of the same molecule?
A: Its value is 72.5.

Q: What about the “α-santalene among reaction products (GC-FID)” value ([2]; FPP Mn, replicate 1) of the same molecule?
A: Its value is 10.3.

Q: What about the “β-santalene among reaction products (GC-FID)” value ([2]; FPP Mn, replicate 1) of the same molecule?
A: The value was 5.3.

Q: And the “E-β-farnesene among reaction products (GC-FID)” value ([2]; FPP Mn, replicate 2)?
A: Its value is 8.5.

Q: What about the “Z-β-farnesene among reaction products (GC-FID)” value ([2]; FPP Mn, replicate 2) of the same molecule?
A: The value was 0.9.

Q: And the “epi-β-santalene among reaction products (GC-FID)” value ([2]; FPP Mn, replicate 2)?
A: The value was 0.8.

Q: What about the “α-E-bergamotene among reaction products (GC-FID)” value ([2]; FPP Mn, replicate 2) of the same molecule?
A: The value was 73.8.

Q: And the “α-santalene among reaction products (GC-FID)” value ([2]; FPP Mn, replicate 2)?
A: Its value is 10.5.

Q: And the “β-santalene among reaction products (GC-FID)” value ([2]; FPP Mn, replicate 2)?
A: Its value is 5.5.

Q: And the “E-β-farnesene among reaction products (GC-FID)” value ([2]; FPP Mn, replicate 3)?
A: The value was 8.6.

Q: And the “Z-β-farnesene among reaction products (GC-FID)” value ([2]; FPP Mn, replicate 3)?
A: Its value is 0.9.

Q: What about the “epi-β-santalene among reaction products (GC-FID)” value ([2]; FPP Mn, replicate 3) of the same molecule?
A: The value was 1.2.

Q: What about the “α-E-bergamotene among reaction products (GC-FID)” value ([2]; FPP Mn, replicate 3) of the same molecule?
A: The value was 74.4.

Q: And the “α-santalene among reaction products (GC-FID)” value ([2]; FPP Mn, replicate 3)?
A: The value was 9.7.

Q: And the “β-santalene among reaction products (GC-FID)” value ([2]; FPP Mn, replicate 3)?
A: Its value is 5.1.

Q: And the “Relative % composition in oil produced by enzyme: E-α-bergamotol” value ([2]; GC-FID)?
A: The value was 14.5%.

Q: And the “Relative % composition in oil produced by enzyme: β-santalol” value ([2]; GC-FID)?
A: The value was 27.4%.

Q: And the Kcat ([3]; FPP)?
A: The Kcat was 0.0277 s⁻¹.

Q: And the Vmax ([3]; assays using FPP)?
A: The Vmax was 0.54 µM/min.
